Results published in US20030007981A1 (UNIVERSITY OF SASKATCHEWAN, published 2003).

B1: H. somnus transferrin-binding protein 1 (native, from strain HS25) (receptor)
chain: DTESPSSNTEAVLELEAIQVQAKHEISRHDNEVTGLGKVVKSSEDIDKELILNIRDLTRYDPGISVVEQGRGATSGYAMRGVDRNRVAMLVDGLGQAQSYSTLKSDANGGAINEIEYENIKSIELSKGSSSAEYGSGALGGAVGFRTKEADDVIKEGQNWGLNSKTAYSSKNSQFTQSVAGAFRVGGFDSLAIFTHRKGKETRVHPAAEEIQHTYQPLEGYFNRYEVDQNRNGKPVLANAYYILADECSNLSDPSCRHAKAKTNRVGAPENNPNWTPEEQAQAAKMPYPTRTASAKDYTGPDRISPNPMDYQSHSFFWKGGYRLSPNHYVGGVLEHTKQRYDIRDMTQRAYYTKEDICHSGSSCQTLDKNETDKGNFGITLTDNPLDGLVYDAGNQARGVRYGRGKFFNERHTKNRSGIFYRYENPDKNSWPDSLTLSIDRQDLKLSSRIHWTYCTDYPHVARCRASLDKPWSNYRTEKNDYQERLNLGQFNWEKTFNLGFTTHKVNIAAGFGTHRSTLQHGDLYAEYVTLPPYTEEKVYGEDNKVKQNPTAEEKEKLQYGNGSYDKPRVYRRKNTPELKTVNGCNETAGDNRDCSPRVITGRQYYLALRNHIAFGEWADLGLGVRYDNHTFRSNDPWTKGGNYHNWSWNAGVSLKPTRHFVVSYRVSSGFRVPAFYELYGVRTGASGKDNPLTQKEFLSRKPLKSEKAFNQEIGLAVQGDFGVIETSFFQNNYKNLLARADKYVEGLGYVTDFYNTQDVKLNGINILGRIYWEGISDRLPEGLYSTLAYNRINIKARKLHDNFTNVSEPTLEAVQPGRIIASIGYDDPEGRWGLNLSGTYSQAKQRDEVVGEKVFGKGGSIKRTINSKRTRAWYIYDLTAYYTWKEKFTLRAGIYNLTNRKYSTWESVRQSAANAVNQDLGTRSARFAARGRNFTVSMEMKF
notes: also called Tbp1; native H. somnus Tbp1
B2: H. somnus transferrin-binding protein 2 (native, from strain HS25) (receptor)
chain: CSSGKGGFDLDDVEHTPPSSSGSSRPTYQDVPTGQRQQEIVEEINSPALGYATEIPRRNISPMPTTGTKESNARVAITAQQVAPLSMPFNSIKEDFIKRLIAENTKKNARGRDVKYFDDTDDVLFAHDGSNLAHKRDLQYVRVGYVLGTRKIELVFSHDKKTRDQFPAGWVGYVFYQGTSPAVTLPTQTVTYKGYWDFVSDAFNERTLAEDFTQENSSATSNIPGNQIGATSMDALVNRKVSGEKINIAHSAEFTADFGSKKLSGELKSNGYVSRIENEQQDVKTRYKIDADIKGNRFVGSATAQEKSHTIFGKDADKRLEGGFFGPKAEELAGKFLTDDNSLFVVFGAKRESKGDEKLETRFDAVKISTDSNKLEKETMDTFGNAAYLVLDGRQFPLVPESNAGTTGAGNTGKNEFISTIDGSHLNKTNHENHKKYKVTVCCSNLVYVKFGSYGEQTTANDASNSTAGAATTHNSTLTNGHLFLTGERTSLTDMAKQSGAAKYIGTWQANFLSSKGQVGSVDAGDPRNDSGKSRAEFDVNFGGKTVTGKFFDADGIQPALTMDSTKIEGNGFSGTAKTTGSLQLDKGSTGAGITVTFTDAKVDGAFYGPNAEEIGGTITSNGTGDKVGGVFGAKRQELSQQK
modifications: lipid modification (lipoprotein; residue not stated)
notes: The signal peptide (residues 1-19) is stated; also called Tbp2; protein with relative molecular weight of 80,000

Target: biotinylated bovine transferrin (bovine, UniProt Q29443 20-704, biotinylated (sites not given))
Sequence (Q29443 20-704 limits assumed): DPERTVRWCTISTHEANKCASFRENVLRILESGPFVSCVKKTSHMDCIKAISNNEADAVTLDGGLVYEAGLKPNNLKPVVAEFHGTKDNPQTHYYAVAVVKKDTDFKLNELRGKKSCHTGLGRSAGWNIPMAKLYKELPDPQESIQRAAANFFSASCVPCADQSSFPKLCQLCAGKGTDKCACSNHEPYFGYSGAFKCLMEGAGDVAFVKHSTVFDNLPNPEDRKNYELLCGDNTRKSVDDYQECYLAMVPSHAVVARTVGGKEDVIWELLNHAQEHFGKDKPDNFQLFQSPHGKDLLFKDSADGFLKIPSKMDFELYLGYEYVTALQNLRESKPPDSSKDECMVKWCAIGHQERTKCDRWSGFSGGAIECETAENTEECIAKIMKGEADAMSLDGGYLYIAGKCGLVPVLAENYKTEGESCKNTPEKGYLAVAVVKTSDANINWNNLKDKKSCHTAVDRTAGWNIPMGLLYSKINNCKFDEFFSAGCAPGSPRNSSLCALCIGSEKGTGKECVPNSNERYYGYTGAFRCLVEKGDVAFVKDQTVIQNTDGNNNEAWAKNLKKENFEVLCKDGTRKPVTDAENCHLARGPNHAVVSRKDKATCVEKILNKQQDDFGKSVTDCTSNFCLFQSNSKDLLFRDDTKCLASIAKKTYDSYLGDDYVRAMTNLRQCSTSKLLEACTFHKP
Assay: affinity chromatography: H. somnus total membranes mixed with biotinylated bovine transferrin, captured on streptavidin-agarose

Binder | binding result
B1 | binds
B2 | binds
